The target of data set [1] is T1, mStau2 dsRBD3-4 (Mus musculus, UniProt Q8CJ67 207-375).
T1 sequence: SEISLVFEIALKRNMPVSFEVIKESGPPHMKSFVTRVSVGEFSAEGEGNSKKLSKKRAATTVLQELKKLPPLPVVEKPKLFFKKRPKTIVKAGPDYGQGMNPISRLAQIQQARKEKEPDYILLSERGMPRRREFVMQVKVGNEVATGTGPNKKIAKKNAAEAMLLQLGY
Briefly: EMSA; Kd micromolar; SPR: HBS-EP (10 mM HEPES pH 7.4, 150 mM NaCl, 3 mM EDTA, 0.005% P20); EMSA: 5 nM RNA, protein buffer (40 mM Bis-Tris pH 7, 150 mM NaCl, 2 mM DTT presumed), 4% glycerol, 30 ug/mL yeast tRNA, RT; NMR: 150 mM NaCl, 20 mM Na phosphate pH 7.0, 5 mM DTT, 298 K. The following applies: protein: recombinant; tags: HisSUMO removed; label: 5' 32P; hairpin, 3' ss extension.

Data set [2] has as its target T2, mStau2 dsRBD1-2 (Mus musculus, UniProt Q8CJ67 8-181).
T2 sequence: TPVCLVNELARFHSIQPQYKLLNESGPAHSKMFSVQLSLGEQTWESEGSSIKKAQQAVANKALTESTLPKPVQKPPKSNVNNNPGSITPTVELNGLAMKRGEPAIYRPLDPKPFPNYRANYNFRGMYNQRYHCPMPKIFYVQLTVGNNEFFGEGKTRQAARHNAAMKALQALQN
The data set is described as above. The following applies: protein: recombinant; tags: HisSUMO removed; label: 5' 32P; hairpin, 3' ss extension.

The next data set concerns the target T3, mStau2 full-length (Mus musculus, UniProt Q8CJ67 1-570).
T3 sequence: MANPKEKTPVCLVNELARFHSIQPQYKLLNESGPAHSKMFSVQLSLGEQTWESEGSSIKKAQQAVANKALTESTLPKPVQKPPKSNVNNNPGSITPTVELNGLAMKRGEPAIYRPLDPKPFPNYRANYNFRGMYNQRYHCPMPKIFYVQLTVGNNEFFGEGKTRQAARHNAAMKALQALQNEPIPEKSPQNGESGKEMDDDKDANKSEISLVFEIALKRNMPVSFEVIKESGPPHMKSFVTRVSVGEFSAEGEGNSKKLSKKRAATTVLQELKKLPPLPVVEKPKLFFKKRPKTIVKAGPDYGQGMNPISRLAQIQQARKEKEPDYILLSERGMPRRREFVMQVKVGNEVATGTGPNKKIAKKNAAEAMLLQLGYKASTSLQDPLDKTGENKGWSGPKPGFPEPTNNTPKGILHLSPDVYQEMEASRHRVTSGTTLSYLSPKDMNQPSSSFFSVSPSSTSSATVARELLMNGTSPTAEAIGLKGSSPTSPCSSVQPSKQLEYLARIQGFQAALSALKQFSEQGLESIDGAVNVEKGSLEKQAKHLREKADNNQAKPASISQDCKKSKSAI
Description: EMSA; Kd low micromolar; SPR: HBS-EP (10 mM HEPES pH 7.4, 150 mM NaCl, 3 mM EDTA, 0.005% P20); EMSA: 5 nM RNA, protein buffer (40 mM Bis-Tris pH 7, 150 mM NaCl, 2 mM DTT presumed), 4% glycerol, 30 ug/mL yeast tRNA, RT; NMR: 150 mM NaCl, 20 mM Na phosphate pH 7.0, 5 mM DTT, 298 K. The settings on record: protein: recombinant; tags: HisSUMO; label: 5' 32P; hairpin.

A further data set concerns the target T4, mStau2 dsRBD3 (Mus musculus, UniProt Q8CJ67 207-274).
T4 sequence: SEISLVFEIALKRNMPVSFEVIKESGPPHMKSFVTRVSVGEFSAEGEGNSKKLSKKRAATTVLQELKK
Description: EMSA; up to 5 uM; SPR: HBS-EP (10 mM HEPES pH 7.4, 150 mM NaCl, 3 mM EDTA, 0.005% P20); EMSA: 5 nM RNA, protein buffer (40 mM Bis-Tris pH 7, 150 mM NaCl, 2 mM DTT presumed), 4% glycerol, 30 ug/mL yeast tRNA, RT; NMR: 150 mM NaCl, 20 mM Na phosphate pH 7.0, 5 mM DTT, 298 K. The settings on record: protein: recombinant; label: 5' 32P; hairpin.

Data set [3] has as its target T1, mStau2 dsRBD3-4. Description: EMSA; SPR: HBS-EP (10 mM HEPES pH 7.4, 150 mM NaCl, 3 mM EDTA, 0.005% P20); EMSA: 5 nM RNA, protein buffer (40 mM Bis-Tris pH 7, 150 mM NaCl, 2 mM DTT presumed), 4% glycerol, 30 ug/mL yeast tRNA, RT; NMR: 150 mM NaCl, 20 mM Na phosphate pH 7.0, 5 mM DTT, 298 K. The settings on record: protein: recombinant; tags: HisSUMO removed; label: 5' 32P; hairpin.

Another data set has as its target T5, mStau2 dsRBD4 (Mus musculus, UniProt Q8CJ67 307-375).
T5 sequence: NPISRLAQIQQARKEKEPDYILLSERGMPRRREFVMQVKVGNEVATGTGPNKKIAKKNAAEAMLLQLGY
Briefly: EMSA; binds at micromolar concentrations; SPR: HBS-EP (10 mM HEPES pH 7.4, 150 mM NaCl, 3 mM EDTA, 0.005% P20); EMSA: 5 nM RNA, protein buffer (40 mM Bis-Tris pH 7, 150 mM NaCl, 2 mM DTT presumed), 4% glycerol, 30 ug/mL yeast tRNA, RT; NMR: 150 mM NaCl, 20 mM Na phosphate pH 7.0, 5 mM DTT, 298 K. The settings on record: protein: recombinant; label: 5' 32P; hairpin.

In data set [4] the target is T2, mStau2 dsRBD1-2. Briefly: EMSA; comparable with dsRBD3-4; SPR: HBS-EP (10 mM HEPES pH 7.4, 150 mM NaCl, 3 mM EDTA, 0.005% P20); EMSA: 5 nM RNA, protein buffer (40 mM Bis-Tris pH 7, 150 mM NaCl, 2 mM DTT presumed), 4% glycerol, 30 ug/mL yeast tRNA, RT; NMR: 150 mM NaCl, 20 mM Na phosphate pH 7.0, 5 mM DTT, 298 K. The settings on record: protein: recombinant; tags: HisSUMO removed; label: 5' 32P; hairpin.

The target of data set [5] is T1, mStau2 dsRBD3-4. Briefly: EMSA; almost abolished; no complex observed; SPR: HBS-EP (10 mM HEPES pH 7.4, 150 mM NaCl, 3 mM EDTA, 0.005% P20); EMSA: 5 nM RNA, protein buffer (40 mM Bis-Tris pH 7, 150 mM NaCl, 2 mM DTT presumed), 4% glycerol, 30 ug/mL yeast tRNA, RT; NMR: 150 mM NaCl, 20 mM Na phosphate pH 7.0, 5 mM DTT, 298 K. The following applies: protein: recombinant; tags: HisSUMO removed; label: 5' 32P; hairpin, 3' ss extension.

The target of data set [6] is T2, mStau2 dsRBD1-2. The description is as above. The following applies: protein: recombinant; tags: HisSUMO removed; label: 5' 32P; hairpin, 3' ss extension.

As to GGACAUGCAAUUUGUGUAUGUAUAUA (structured_RNA) [8 bp SRS2 stem-loop (7bpSRS2+5)], the binding result in the data set with mStau2 dsRBD3-4 [1] and in the data set with mStau2 dsRBD1-2 [2] was “binds” throughout.
Take GGGUUCCGUCAAGCCACUGGGUCUUGAUGGAGC (structured_RNA) [Rgs4 SRS1]: the binding result with mStau2 full-length is “binds”.
With GGACAUGCACAUGAUUUGUAUGUGUAUGUAUAUA (structured_RNA) [12 bp SRS2 stem-loop (11bpSRS2+5)], the binding result with mStau2 dsRBD3-4 [1] and with mStau2 dsRBD1-2 [2] was “binds” in each case.
Regarding GGGACAUGCACAUGCAAUUUGUGUAUGUGUAUGU (structured_RNA) [Rgs4 SRS2 (EMSA transcript)], the binding result with mStau2 dsRBD3 is “no binding”; in the data set with mStau2 dsRBD3-4 [3] it was “binds”; with mStau2 dsRBD4, “binds”; in the data set with mStau2 full-length, “binds”; with mStau2 dsRBD1-2 [4], “binds”.
With GGACAUGCAUUUGGUAUGUAUAUA (structured_RNA) [7 bp SRS2 stem-loop (6bpSRS2+5)], the binding result in the data set with mStau2 dsRBD3-4 [5] and with mStau2 dsRBD1-2 [6] was “no binding” each time.
GGACAUGCACAAUUUGUGUGUAUGUAUAUA (structured_RNA) [10 bp SRS2 stem-loop (9bpSRS2+5)]: the binding result with mStau2 dsRBD3-4 [1] and in the data set with mStau2 dsRBD1-2 [2] was “binds” throughout.
